Measurements from publication PMC8156982, “DNA Aptamers against Vaccinia-Related Kinase (VRK) 1 Block Proliferation in MCF7 Breast Cancer Cells”.

How the values were obtained:
[1] = target: T1, VRK1 (vaccinia-related kinase 1), recombinant (UniProt Q99986 1-396); experiment: ELONA; 40 nM PCR-labeled chain; 10 mM sodium phosphate, 0.15 M NaCl, pH 7.5, 1 mM MgCl2, 0.2% BSA; 37 C, 1 h; aptamers denatured at 95 C 10 min then ice 10 min; VRK1 coated on plate (20 or 200 ng/well); details: protein: recombinant; tags: 6xHis; label: digoxigenin (5' when made with primer R5); no G-quadruplex (predicted)
T1 sequence: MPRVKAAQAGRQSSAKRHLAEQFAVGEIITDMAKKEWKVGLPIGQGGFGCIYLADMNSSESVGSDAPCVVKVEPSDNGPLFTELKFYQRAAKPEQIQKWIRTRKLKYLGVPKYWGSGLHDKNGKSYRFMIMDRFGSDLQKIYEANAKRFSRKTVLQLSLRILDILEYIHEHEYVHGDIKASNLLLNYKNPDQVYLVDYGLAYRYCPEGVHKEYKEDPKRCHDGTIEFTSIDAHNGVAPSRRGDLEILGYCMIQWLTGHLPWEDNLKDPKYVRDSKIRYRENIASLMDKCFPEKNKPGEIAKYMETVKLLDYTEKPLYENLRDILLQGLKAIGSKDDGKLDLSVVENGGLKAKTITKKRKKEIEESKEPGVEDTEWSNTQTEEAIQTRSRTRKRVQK

[2] = target: T1, VRK1 (vaccinia-related kinase 1), …; experiment: ELONA; 80 nM; at least twice control; 10 mM sodium phosphate, 0.15 M NaCl, pH 7.5, 1 mM MgCl2, 0.2% BSA; 37 C, 1 h; aptamers denatured at 95 C 10 min then ice 10 min; VRK1 coated on plate (20 or 200 ng/well); details: protein: recombinant; tags: 6xHis; label: 5' digoxigenin on both chains; PCR duplex denatured at 95 C and cooled on ice
[3] = target: T1, VRK1 (vaccinia-related kinase 1), …; experiment: ELONA; 1 mM Mg2+; 10 mM sodium phosphate, 0.15 M NaCl, pH 7.5, 1 mM MgCl2, 0.2% BSA; 37 C, 1 h; aptamers denatured at 95 C 10 min then ice 10 min; VRK1 coated on plate (20 or 200 ng/well); details: protein: recombinant, tags: 6xHis, label: digoxigenin (5' when made with primer F5)
[4] = possible two G-quadruplexes (predicted)

B1: apVRKR28 (V#R28) (ssDNA)
DNA: TCACCAGCACGTCCATGAGGCAAGAAACCCACCCACCGCCCCCATCCGCCGTCCCTGTAGTGGCATCCGAGCGT
Q: Does B1 bind [1]?
A: Result: binds

B2: apVRK33 (F+R chains) (mixed)
DNA 1: ACGCTCGGATGCCACTACAGGTTGCGAGGTGGGGGGTGGGTAGGGTGGGAAGTGCCCTCATGGACGTGCTGGTGA
DNA 2: TCACCAGCACGTCCATGAGGGCACTTCCCACCCTACCCACCCCCCACCTCGCAACCTGTAGTGGCATCCGAGCGT
Q: Which binding signal [2] does the source give for B2 here?
A: Its binding signal is > 2 fold over control.

B3: apVRKF33 (V#F33) (ssDNA)
DNA: B2 DNA 1
Q: Which Kd [3, 4] does the source give for B3 here?
A: The Kd was 129 ± 55.6 nM.

B4: apVRKF8 (V#F8) (ssDNA)
DNA: ACGCTCGGATGCCACTACAGGGAGGGGGGGGGAAAGTAAGCGGGGGGTCGGCGGCCTCATGGACGTGCTGGTGA
Q: With B4 as the binder, how does the Kd [3, 4] read?
A: The Kd was 45.8 ± 5.01 nM.

B5: apVRK8 (F+R chains) (mixed)
DNA 1: B4 DNA
DNA 2: TCACCAGCACGTCCATGAGGCCGCCGACCCCCCGCTTACTTTCCCCCCCCCTCCCTGTAGTGGCATCCGAGCGT
Q: How did the binding signal [2] turn out when B5 was run?
A: Its binding signal is > 2 fold over control.

B6: apVRKF28 (V#F28) (ssDNA)
DNA: ACGCTCGGATGCCACTACAGGGACGGCGGATGGGGGCGGTGGGTGGGTTTCTTGCCTCATGGACGTGCTGGTGA
Q: How did the Kd ([3]; possible one G-quadruplex (predicted)) turn out when B6 was run?
A: Its Kd is 60.1 ± 7.05 nM.

B7: apVRK28 (F+R chains) (mixed)
DNA 1: B6 DNA
DNA 2: B1 DNA
Q: Which binding signal [2] does the source give for B7 here?
A: The binding signal was > 2 fold over control.
